These results are taken from the supplement of paper PMC9112550, “Optimization of the antimicrobial peptide Bac7 by deep mutational scanning” (BMC Biology, 2022).
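Further: peptides expressed intracellularly from a pBAD plasmid library in pooled LB shake-flask culture, induced with 0.3% L-arabinose, DNA abundance read by NGS, three biological replicates, DESeq2 with apeglm shrinkage.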

In the data set the test system is Escherichia coli TOP10. Briefly: shrunken log2 fold change of peptide-encoding DNA abundance (4.5 h post-induction vs induction); higher = less antimicrobial activity (less host growth inhibition). To be noted: time post-induction: 4.5 h; library: site-saturation at positions 5, 18, 19, 20.
On to RRIRERPPRLPRPRPRPLEIPRP, for which the “shrunken log2 fold change” value was found to be 0.0282.

In the case of RRIRCRPPRLPRPRPRPGHNPRP, the “shrunken log2 fold change” value was -0.385.

As to RRIRLRPPRLPRPRPRPMVVPRP, the “shrunken log2 fold change” value was -0.0179.

As for RRIRHRPPRLPRPRPRPAAQPRP, the “shrunken log2 fold change” value was -0.0888.

In the case of RRIRYRPPRLPRPRPRPQRHPRP, the “shrunken log2 fold change” value was -0.48.

As to RRIRFRPPRLPRPRPRPAGVPRP, the “shrunken log2 fold change” value came to 0.172.

On to RRIRVRPPRLPRPRPRPELTPRP, for which the “shrunken log2 fold change” value amounted to 0.149.

With RRIRRRPPRLPRPRPRPKMQPRP, the “shrunken log2 fold change” value amounted to 0.336.

For RRIRPRPPRLPRPRPRPSSQPRP, the “shrunken log2 fold change” value was -0.201.

Take RRIRLRPPRLPRPRPRPIRDPRP: the “shrunken log2 fold change” value was -0.0112.

Consider RRIRTRPPRLPRPRPRPDFPPRP, for which the “shrunken log2 fold change” value is -0.178.

As to RRIRFRPPRLPRPRPRPLTKPRP, the “shrunken log2 fold change” value was -0.2.

Regarding RRIRSRPPRLPRPRPRPHRMPRP, the “shrunken log2 fold change” value is -0.697.

Regarding RRIRSRPPRLPRPRPRPFSLPRP, the “shrunken log2 fold change” value was -0.506.

Turning to RRIRIRPPRLPRPRPRPCKCPRP, the “shrunken log2 fold change” value was -0.0887.

In the case of RRIRQRPPRLPRPRPRPRWVPRP, the “shrunken log2 fold change” value worked out at 0.345.

Take RRIRNRPPRLPRPRPRPINSPRP: the “shrunken log2 fold change” value is -0.208.

With RRIRDRPPRLPRPRPRPDQDPRP, the “shrunken log2 fold change” value came out at 0.399.

Regarding RRIRNRPPRLPRPRPRPDMKPRP, the “shrunken log2 fold change” value was -0.423.

Regarding RRIRSRPPRLPRPRPRPGYQPRP, the “shrunken log2 fold change” value was -0.147.

Take RRIRERPPRLPRPRPRPYCHPRP: the “shrunken log2 fold change” value is -0.467.

As to RRIRPRPPRLPRPRPRPPNKPRP, the “shrunken log2 fold change” value stood at 0.139.

Consider RRIRTRPPRLPRPRPRPAGSPRP, for which the “shrunken log2 fold change” value was -0.000597.

Regarding RRIRWRPPRLPRPRPRPNPTPRP, the “shrunken log2 fold change” value is -0.0571.

As for RRIRHRPPRLPRPRPRPCAKPRP, the “shrunken log2 fold change” value is -0.251.

On to RRIRERPPRLPRPRPRPCASPRP, for which the “shrunken log2 fold change” value is -0.172.

Regarding RRIRQRPPRLPRPRPRPLFLPRP, the “shrunken log2 fold change” value was -0.65.

As to RRIRYRPPRLPRPRPRPGWKPRP, the “shrunken log2 fold change” value turned out to be 0.00711.

On to RRIRIRPPRLPRPRPRPGLAPRP, for which the “shrunken log2 fold change” value is 0.201.

In the case of RRIRDRPPRLPRPRPRPIFRPRP, the “shrunken log2 fold change” value was -0.202.

On to RRIRERPPRLPRPRPRPTENPRP, for which the “shrunken log2 fold change” value was -0.0185.

Take RRIRIRPPRLPRPRPRPSNPPRP: the “shrunken log2 fold change” value is -0.74.

Consider RRIRCRPPRLPRPRPRPSHEPRP, for which the “shrunken log2 fold change” value was -0.334.

For RRIRTRPPRLPRPRPRPCIFPRP, the “shrunken log2 fold change” value was -0.233.

Take RRIRLRPPRLPRPRPRPPYWPRP: the “shrunken log2 fold change” value was determined as 0.106.

For RRIRCRPPRLPRPRPRPVMYPRP, the “shrunken log2 fold change” value was -0.199.

As for RRIRKRPPRLPRPRPRPLMPPRP, the “shrunken log2 fold change” value worked out at 0.232.

On to RRIRPRPPRLPRPRPRPNQDPRP, for which the “shrunken log2 fold change” value is -0.167.

Consider RRIRWRPPRLPRPRPRPQIVPRP, for which the “shrunken log2 fold change” value is 0.0235.

In the case of RRIRQRPPRLPRPRPRPTFMPRP, the “shrunken log2 fold change” value was -0.552.

On to RRIRMRPPRLPRPRPRPEDTPRP, for which the “shrunken log2 fold change” value is 1.94.

Regarding RRIRFRPPRLPRPRPRPIEVPRP, the “shrunken log2 fold change” value came out at 0.0653.

As for RRIRTRPPRLPRPRPRPGSGPRP, the “shrunken log2 fold change” value came out at 0.344.

On to RRIRQRPPRLPRPRPRPCDNPRP, for which the “shrunken log2 fold change” value is -0.269.

RRIRTRPPRLPRPRPRPGTAPRP: the “shrunken log2 fold change” value is 0.166.

Consider RRIRSRPPRLPRPRPRPVANPRP, for which the “shrunken log2 fold change” value came out at 0.152.

On to RRIRPRPPRLPRPRPRPVMGPRP, for which the “shrunken log2 fold change” value was 0.149.

Take RRIRERPPRLPRPRPRPMCDPRP: the “shrunken log2 fold change” value was -0.212.

Consider RRIRERPPRLPRPRPRPFWGPRP, for which the “shrunken log2 fold change” value is 0.0105.

With RRIRHRPPRLPRPRPRPFSMPRP, the “shrunken log2 fold change” value is -0.0138.

Take RRIRVRPPRLPRPRPRPPNPPRP: the “shrunken log2 fold change” value was 0.379.

Regarding RRIRERPPRLPRPRPRPLGPPRP, the “shrunken log2 fold change” value amounted to 0.099.

With RRIRCRPPRLPRPRPRPMMHPRP, the “shrunken log2 fold change” value is -0.175.

For RRIRLRPPRLPRPRPRPEMAPRP, the “shrunken log2 fold change” value amounted to 0.113.

Regarding RRIRTRPPRLPRPRPRPFSGPRP, the “shrunken log2 fold change” value is -0.0204.

RRIRTRPPRLPRPRPRPDLCPRP: the “shrunken log2 fold change” value was found to be 0.144.

On to RRIRQRPPRLPRPRPRPKWWPRP, for which the “shrunken log2 fold change” value was -0.0687.

In the case of RRIRIRPPRLPRPRPRPLRPPRP, the “shrunken log2 fold change” value worked out at 0.583.

With RRIRYRPPRLPRPRPRPPMMPRP, the “shrunken log2 fold change” value is -0.836.

In the case of RRIRPRPPRLPRPRPRPMSQPRP, the “shrunken log2 fold change” value was 0.0517.

As to RRIRRRPPRLPRPRPRPVMDPRP, the “shrunken log2 fold change” value was -0.0641.

As to RRIRQRPPRLPRPRPRPHGLPRP, the “shrunken log2 fold change” value is -0.327.

Regarding RRIRERPPRLPRPRPRPVLQPRP, the “shrunken log2 fold change” value was -0.347.

In the case of RRIRPRPPRLPRPRPRPNKQPRP, the “shrunken log2 fold change” value was 0.0754.

As to RRIRNRPPRLPRPRPRPSQCPRP, the “shrunken log2 fold change” value is -0.13.

Regarding RRIRTRPPRLPRPRPRPFHMPRP, the “shrunken log2 fold change” value was -0.13.

With RRIRNRPPRLPRPRPRPWDCPRP, the “shrunken log2 fold change” value was -0.118.

On to RRIRGRPPRLPRPRPRPVGPPRP, for which the “shrunken log2 fold change” value stood at 0.762.

Turning to RRIRPRPPRLPRPRPRPDTHPRP, the “shrunken log2 fold change” value is -0.119.

Consider RRIRPRPPRLPRPRPRPFQSPRP, for which the “shrunken log2 fold change” value was found to be 0.0035.

As to RRIRGRPPRLPRPRPRPEAVPRP, the “shrunken log2 fold change” value stood at 2.27.

As for RRIRLRPPRLPRPRPRPECFPRP, the “shrunken log2 fold change” value turned out to be 0.226.

In the case of RRIRKRPPRLPRPRPRPGISPRP, the “shrunken log2 fold change” value worked out at 0.249.

Take RRIRGRPPRLPRPRPRPGWAPRP: the “shrunken log2 fold change” value was 0.992.

With RRIRWRPPRLPRPRPRPVAQPRP, the “shrunken log2 fold change” value worked out at 0.386.

Consider RRIRARPPRLPRPRPRPYPKPRP, for which the “shrunken log2 fold change” value was -0.149.

In the case of RRIRFRPPRLPRPRPRPIYDPRP, the “shrunken log2 fold change” value was -0.626.

For the sequence RRIRQRPPRLPRPRPRPNMSPRP, the “shrunken log2 fold change” value was -0.313.

Take RRIRARPPRLPRPRPRPIMSPRP: the “shrunken log2 fold change” value turned out to be 0.0485.

In the case of RRIRTRPPRLPRPRPRPMTGPRP, the “shrunken log2 fold change” value amounted to 0.17.

As for RRIRRRPPRLPRPRPRPVCDPRP, the “shrunken log2 fold change” value came out at 0.621.

As for RRIRMRPPRLPRPRPRPCPTPRP, the “shrunken log2 fold change” value was 0.11.

In the case of RRIRYRPPRLPRPRPRPQPPPRP, the “shrunken log2 fold change” value came to 0.163.

With RRIRKRPPRLPRPRPRPGEEPRP, the “shrunken log2 fold change” value is 0.108.

On to RRIRPRPPRLPRPRPRPNAAPRP, for which the “shrunken log2 fold change” value came out at 0.237.

Take RRIRRRPPRLPRPRPRPYMTPRP: the “shrunken log2 fold change” value was -0.0329.

Consider RRIRGRPPRLPRPRPRPFNVPRP, for which the “shrunken log2 fold change” value is -0.101.

With RRIRLRPPRLPRPRPRPEQMPRP, the “shrunken log2 fold change” value worked out at 0.126.

Take RRIRHRPPRLPRPRPRPKAVPRP: the “shrunken log2 fold change” value was -0.00256.

Regarding RRIRKRPPRLPRPRPRPHKNPRP, the “shrunken log2 fold change” value came out at 0.207.

For the sequence RRIRPRPPRLPRPRPRPIPDPRP, the “shrunken log2 fold change” value was determined as 0.0469.

Regarding RRIRPRPPRLPRPRPRPWKIPRP, the “shrunken log2 fold change” value was -0.244.

As for RRIRFRPPRLPRPRPRPLGHPRP, the “shrunken log2 fold change” value was -0.0599.

As for RRIRCRPPRLPRPRPRPAKVPRP, the “shrunken log2 fold change” value was -0.243.

Take RRIRGRPPRLPRPRPRPSYGPRP: the “shrunken log2 fold change” value was -0.137.

For RRIRERPPRLPRPRPRPSPYPRP, the “shrunken log2 fold change” value is -0.277.

For RRIRHRPPRLPRPRPRPSWFPRP, the “shrunken log2 fold change” value was -0.408.

For RRIRERPPRLPRPRPRPVRFPRP, the “shrunken log2 fold change” value is 0.431.

Turning to RRIRKRPPRLPRPRPRPYGCPRP, the “shrunken log2 fold change” value is -0.00151.

RRIRDRPPRLPRPRPRPAIEPRP: the “shrunken log2 fold change” value is 0.0117.

As for RRIRCRPPRLPRPRPRPADPPRP, the “shrunken log2 fold change” value is -0.195.

In the case of RRIRVRPPRLPRPRPRPEDAPRP, the “shrunken log2 fold change” value is 0.801.

For the sequence RRIRCRPPRLPRPRPRPSYGPRP, the “shrunken log2 fold change” value is -0.627.

Regarding RRIRTRPPRLPRPRPRPWLNPRP, the “shrunken log2 fold change” value was -0.0665.

In the case of RRIRERPPRLPRPRPRPFFAPRP, the “shrunken log2 fold change” value stood at 0.848.

For RRIRIRPPRLPRPRPRPANIPRP, the “shrunken log2 fold change” value was -0.383.

As to RRIRTRPPRLPRPRPRPRYEPRP, the “shrunken log2 fold change” value was -0.0806.

On to RRIRPRPPRLPRPRPRPMRSPRP, for which the “shrunken log2 fold change” value worked out at 0.478.

For RRIRARPPRLPRPRPRPTMYPRP, the “shrunken log2 fold change” value is -0.154.

On to RRIRYRPPRLPRPRPRPGWGPRP, for which the “shrunken log2 fold change” value is -0.13.

Turning to RRIRYRPPRLPRPRPRPILHPRP, the “shrunken log2 fold change” value was -0.141.

As to RRIRKRPPRLPRPRPRPENCPRP, the “shrunken log2 fold change” value stood at 0.654.

Turning to RRIRARPPRLPRPRPRPYPGPRP, the “shrunken log2 fold change” value was determined as 0.0384.

As to RRIRRRPPRLPRPRPRPMDHPRP, the “shrunken log2 fold change” value was -0.0417.

Consider RRIRPRPPRLPRPRPRPIFAPRP, for which the “shrunken log2 fold change” value was found to be 0.33.

Turning to RRIRNRPPRLPRPRPRPTWKPRP, the “shrunken log2 fold change” value came to 0.0378.

With RRIRKRPPRLPRPRPRPFGPPRP, the “shrunken log2 fold change” value came to 0.325.

In the case of RRIRRRPPRLPRPRPRPMPEPRP, the “shrunken log2 fold change” value was 0.124.

For the sequence RRIRQRPPRLPRPRPRPTQNPRP, the “shrunken log2 fold change” value turned out to be 0.627.

Consider RRIRVRPPRLPRPRPRPNCQPRP, for which the “shrunken log2 fold change” value is -0.1.

On to RRIRARPPRLPRPRPRPPQNPRP, for which the “shrunken log2 fold change” value came out at 1.05.

Consider RRIRPRPPRLPRPRPRPVVFPRP, for which the “shrunken log2 fold change” value worked out at 0.0396.

Regarding RRIRHRPPRLPRPRPRPKYAPRP, the “shrunken log2 fold change” value is -0.0413.

In the case of RRIRQRPPRLPRPRPRPSWSPRP, the “shrunken log2 fold change” value was -0.185.

On to RRIRPRPPRLPRPRPRPTWMPRP, for which the “shrunken log2 fold change” value was -0.0166.
